Source: patent publication US20150011730A1 (UNIVERSITY OF SOUTH CAROLINA, published 2015)
No end group written: not given here. Pyrazole N‑cap, 4‑chlorophenylpyrazole (R1 H, R2 Cl, R3 H, R4 CH3, W N, X N, Y C, Z C) = not defined here

Legend:
Experiment in all cases: FP binding assay
[1] = biological target: T1, CDK4/cyclin D1 (as used in the binding assay) (UniProt P11802 1-303; P24385 1-295)
T1 construct: kept apart from the GST-tagged kinase-assay complex m2; also called CDK4/D1

[2] = biological target: CDK2/cyclin A (as used in the binding assay) (UniProt P24941 1-298; P20248 1-432)
[3] = biological target: T1, CDK4/cyclin D1 (as used in the binding …); remark: listed apart in the source

B1: SCCP 5765 (Pyrazole N-cap ligated to RLIF) (peptide)
peptide: {Pyrazole N‑cap, 4‑chlorophenylpyrazole (R1 H, R2 Cl, R3 H, R4 CH3, W N, X N, Y C, Z C)}-RLIF
modifications: reading uncertain; also: cap structure given only by scaffold parameters
notes: also called 4-chlorophenylpyrazole
For B1, the “fold less active relative to the triazole N capping group” value [1] was at least 4 fold, the IC50 [2] was 33.7 µM and the IC50 [3] was 49 µM.
